Common to all, as to assay type: biochemical
Series [1] can be described thus: Trans-2-enoyl-CoA reductase (butyryl-CoA dehydrogenase) activity assayed as described by Hoffmeister et al. The protocol: Trans-2-enoyl-CoA reductase activity was assayed as described by Hoffmeister et al. (J. Biol. Chem. 280, 4329-4338 (2005)). In one typical assay, the specific activity of the TER CAC0462 protein in the induced culture was determined to be 0.694 μmol mg^−1 min^−1 compared to 0.0128 μmol mg^−1 min^−1 in the uninduced culture.
Trans-2-enoyl-CoA reductase activity was assayed as described by Hoffmeister et al., J. Biol. Chem. 280:4329 (2005). In a typical assay, the specific activity of the EgTER(opt) protein in the induced BL21 (DE3)/pET23+::EgTER(opt) culture was determined to be 1.9 μmol mg^−1 min^−1 compared to 0.547 μmol mg^−1 min^−1 in the uninduced culture.
(§1) For enzyme activity analysis, a single colony of each strain was streaked onto a fresh plate containing SD minimal drop out medium and incubated at 30° C. for 2 days. The cells on this plate were used to inoculate 20 mL of SD drop out medium and in a 125 mL shake flask and grown overnight at 30° C., with shaking at 250 rpm. The optical density (OD600) of the overnight culture was measured, and the culture was diluted to an OD600=0.1 in 250 mL of the same medium in a 1.0 L shake flask, and grown at 30° C. with shaking at 250 rpm to an OD600 of between 0.8 to 1.0. The cells were then harvested by centrifugation at 2000×g for 10 min, and resuspended in 20 mL of 50 mM Tris-HCl buffer, pH 8.5. Enzyme assays were performed as described above.

The nature of series [2]: Crotonase activity assayed as described by Stern. The protocol:
Crotonase activity was assayed as described by Stern (Methods Enzymol. 1, 559-566, (1954)). In one typical assay, the specific activity of the crotonase protein in the induced culture was determined to be 444 μmol mg^−1 min^−1 compared to 47 μmol mg^−1 min^−1 in the uninduced culture.
as §1

Series [3] can be described thus: Acetoacetyl-CoA thiolase activity in cell free extracts (decrease in absorbance at 303 nm). The conditions noted are these: yeast strain BY4741 (pNY6), ERG10 gene, in words. The protocol: Acetoacetyl-CoA thiolase activity in the cell free extracts was measured as degradation of a Mg^2+-acetoacetyl-CoA complex by monitoring the decrease in absorbance at 303 nm. Standard assay conditions were 100 mM Tris-HCl pH 8.0, 1 mM DTT (dithiothreitol) and 10 mM MgCl2. The cocktail was equilibrated for 5 min at 37° C.; then the cell-free extract was added. The reaction was initiated with the addition of 0.05 mM acetoacetyl-CoA plus 0.2 mM CoA. Protein concentration was measured by either the Bradford method or by the Bicinchoninic Kit (Sigma, catalog no. BCA-1). Bovine serum albumin (Bio-Rad, Hercules, Calif.) was used as the standard in both cases. In one typical assay, the specific activity of the ThlA protein in the induced culture was determined to be 16.0 μmol mg^−1 min^−1 compared to 0.27 μmol mg^−1 min^−1 in the uninduced culture.
For enzyme activity analysis, a single colony of each strain was streaked onto a fresh plate containing SD minimal drop out medium and incubated at 30° C. for 2 days. […] The optical density (OD600) of the overnight culture was measured, and the culture was diluted to an OD600=0.1 in 250 mL of the same medium in a 1.0 L shake flask, and grown at 30° C. with shaking at 250 rpm to an OD600 of between 0.8 to 1.0. […]

Series [4] can be described thus: Acylating aldehyde dehydrogenase activity (formation of NADH, absorbance at 340 nm). The conditions noted are these: yeast BY4741 transformants containing pNY8. The protocol: Acylating aldehyde dehydrogenase activity was determined by monitoring the formation of NADH, as measured by the increase in absorbance at 340 nm, as described by Husemann et al. (Appl. Microbiol. Biotechnol. 31:435-444 (1989)). In one typical assay, the specific activity of the Aid protein in the induced culture was determined to be 0.106 μmol mg^−1 min^−1 compared to 0.01 μmol mg^−1 min^−1 in the uninduced culture
as §1

B1: Ter: butyl-CoA dehydrogenase (ter) encoded by the codon optimized tery gene, SEQ ID NO:187 (protein)
chain: MLVKAKFVKGFIRDVHPYGCRREVLNQIDYCKKAIGFRGPKKVLIVGASSGFGLATRISVAFGGPEAHTIGVSYETGATDRRIGTAGWYNNIFFKEFAKKKGLVAKNFIEDAFSNETKDKVIKYIKDEFGKIDLFVYSLAAPRRKDYKTGNVYTSRIKTILGDFEGPTIDVERDEITLKKVSSASIEEIEETRKVMGGEDWQEWCEELLYEDCFSDKATTIAYSYIGSPRTYKIYREGTIGIAKKDLEDKAKLINEKLNRVIGGRAFVSVNKALVTKASAYIPTFPLYAAILYKVMKEKNIHENCIMQIERMFSEKIYSNEKIQFDDKGRLRMDDLELRKDVQDEVDRIWSNITPENFKELSDYKGYKKEFMNLNGFDLDGVDYSKDLDIELLRKLEP
modifications: Modified Ter protein
B1: the Ter activity in series [1] (yeast BY4741 transformant of pNY9) is listed as 0.26 U/mg; in series [1] (yeast BY4741 transformed with pNY13, SD-His medium) it was 0.19 U/mg.

B2: crotonase: crotonase encoded by crt from C. acetobutylicum ATCC 824, SEQ ID NO:8 (protein, listed as Clostridium acetobutylicum)
chain: MELNNVILEKEGKVAVVTINRPKALNALNSDTLKEMDYVIGEIENDSEVLAVILTGAGEKSFVAGADISEMKEMNTIEGRKFGILGNKVFRRLELLEKPVIAAVNGFALGGGCEIAMSCDIRIASSNARFGQPEVGLGITPGFGGTQRLSRLVGMGMAKQLIFTAQNIKADEALRIGLVNKVVEPSELMNTAKEIANKIVSNAPVAVKLSKQAINRGMQCDIDTALAFESEAFGECFSTEDQKDAMTAFIEKRKIEGFKNR
B2: in series [2] (yeast strain BY4741 (pNY11: pRS426-GPM1-crt-GPM1t)), the Crt activity came to 85 U/mg. This molecule also came in with a Crt enzyme activity in series [2] (yeast strain DPD5200 (BY4743/pNY103), standard conditions) of 23.0 U/mg.

B3: EgTER(opt): butyryl-CoA dehydrogenase (TER) from Euglena gracilis, codon optimized gene lacking the normal mitochondrial presequence (protein, UniProt Q5EU90 69-539, looked up)
Trans-2-enoyl-CoA reductase: VPQMAEGFSGEATSAWAAAGPQWAAPLVAAASSALALWWWAARRSVRRPLAALAELPTAVTHLAPPMAMFTTTAKVIQPKIRGFICTTTHPIGCEKRVQEEIAYARAHPPTSPGPKRVLVIGCSTGYGLSTRITAAFGYQAATLGVFLAGPPTKGRPAAAGWYNTVAFEKAALEAGLYARSLNGDAFDSTTKARTVEAIKRDLGTVDLVVYSIAAPKRTDPATGVLHKACLKPIGATYTNRTVNTDKAEVTDVSIEPASPEEIADTVKVMGGEDWELWIQALSEAGVLAEGAKTVAYSYIGPEMTWPVYWSGTIGEAKKDVEKAAKRITQQYGCPAYPVVAKALVTQASSAIPVVPLYICLLYRVMKEKGTHEGCIEQMVRLLTTKLYPENGAPIVDEAGRVRVDDWEMAEDVQQAVKDLWSQVSTANLKDISDFAGYQTEFLRLFGFGIDGVDYDQPVDVEADLPSAAQQ
For the molecule B3, in series [1] (induced BL21 (DE3)/pET23+::EgTER(opt) culture), the “specific activity (trans-2-enoyl-CoA reductase)” value was 1.9 µmol/mg/min. Besides, the butyryl-CoA dehydrogenase activity result in series [1] (pTrc99a-EgTER(opt) compared with CaTER constructs, in words) is given as “Higher”.

B4: ERG10: product of the Saccharomyces cerevisiae ERG10 gene, a functional ortholog of the thlA gene (protein, UniProt P41338 2-398, looked up)
Acetyl-CoA acetyltransferase: SQNVYIVSTARTPIGSFQGSLSSKTAVELGAVALKGALAKVPELDASKDFDEIIFGNVLSANLGQAPARQVALAAGLSNHIVASTVNKVCASAMKAIILGAQSIKCGNADVVVAGGCESMTNAPYYMPAARAGAKFGQTVLVDGVERDGLNDAYDGLAMGVHAEKCARDWDITREQQDNFAIESYQKSQKSQKEGKFDNEIVPVTIKGFRGKPDTQVTKDEEPARLHVEKLRSARTVFQKENGTVTAANASPINDGAAAVILVSEKVLKEKNLKPLAIIKGWGEAAHQPADFTWAPSLAVPKALKHAGIEDINSVDYFEFNEAFSVVGLVNTKILKLDPSKVNVYGGAVALGHPLGCSGARVVVTLLSILQQEGGKIGVAAICNGGGGASSIVIEKI
For the molecule B4, in series [3], the thiolase activity result was “no thiolase activity”.

B5: Ald: butyraldehyde dehydrogenase encoded by ald from C. beijerinckii ATCC 35702, SEQ ID NO:12; in yeast from codon optimized aldy, SEQ ID NO:189 (protein, listed as Clostridium beijerinckii)
chain: MNKDTLIPTTKDLKVKTNGENINLKNYKDNSSCFGVFENVENAISSAVHAQKILSLHYTKEQREKIITEIRKAALQNKEVLATMILEETHMGRYEDKILKHELVAKYTPGTEDLTTTAWSGDNGLTVVEMSPYGVIGAITPSTNPTETVICNSIGMIAAGNAVVFNGHPCAKKCVAFAVEMINKAIISCGGPENLVTTIKNPTMESLDAIIKHPSIKLLCGTGGPGMVKTLLNSGKKAIGAGAGNPPVIVDDTADIEKAGRSIIEGCSFDNNLPCIAEKEVFVFENVADDLISNMLKNNAVIINEDQVSKLIDLVLQKNNETQEYFINKKWVGKDAKLFLDEIDVESPSNVKCIICEVNANHPFVMTELMMPILPIVRVKDIDEAIKYAKIAEQNRKHSAYIYSKNIDNLNRFEREIDTTIFVKNAKSFAGVGYEAEGFTTFTIAGSTGEGITSARNFTRQRRCVLAG
As for B5, the “Ald specific activity towards butyryl-CoA” value in series [4] is on record as “approximately 0.07 U/mg”.

Values taken from patent publication US9297028B2, “Fermentive production of four carbon alcohols” (Butamax Advanced Biofuels LLC, priority 2005, dated 2016).
